Test results from US9872921B2, “DE-N-acetyl sialic acid antigens, antibodies thereto, and methods of use in cancer therapy” (priority 2004, dated 2018).

Legend:
[1] = HPTLC / Western blot reactivity with chemically de-N-acylated GD3; format: binding; conditions: mAbs 5 μg/ml
Experimental: De-N-acyl GM3 and GD3 (Calbiochem) were prepared by suspending 1 mg of ganglioside in 2 ml of 2.5 M tetrabutylammonium hydroxide and 3 ml of butanol then heating the mixture to >100 degrees C. for 4 hours. After cooling the mixture to ambient temperature, the pH was adjusted to about 7 by adding 2 M HCl and the butanol removed by evaporation under a stream of N2. The remaining aqueous layer was dialyzed (1K cut-off dialysis tubing) against PBS buffer and used without further modification as an antigen for ELISA.
Lipids in the extract and in chemically de-N-acylated GD3 were analyzed by separation on high performance thin layer chromatography (HPTLC) and Western blot. Samples of the ganglioside extract, the ganglioside extract that had been treated with sodium borohydride (1 mg/100 μl at ambient temperature for 2 h) to remove the trichloroacetyl protecting group, and chemically de-N-acylated GD3 were spotted onto an aluminum-backed silica gel 60 HPTLC plate (Merck) and the plate developed in chloroform/methanol/0.02% CaCl2 (50:40:10). Plates used for Western blot were dried and dipped in a solution of 0.4% polyisobutylmethacrylate in hexame/chloroform (21:8) for 1 min. The plates were blocked with 1% bovine serum albumin (BSA) in PBS buffer containing 0.1% sodium azide. MAbs (5 μg/ml) in the same blocking buffer were incubated with the plates at 4° C. overnight. […]

[2] = tested on: SK-MEL 28 cells; assay: Cell cycle analysis by propidium iodide staining and flow cytometry; format: cell-based, human; conditions: 48 h incubation
Experimental: To further assess the affect of SEAM 3 mAb on cell growth, the stage of the cell cycle after treatment with SEAM 3 was determined. In this experiment, the cells were stained with the fluorescent DNA binding dye propidium iodide to characterize cell populations in various stages of the cell cycle and the effects of adding control antibodies, nocodazole (a drug that arrest the cells in mitosis) and SEAM 3.
Approximately 10^5 SK-MEL 28 cells were plated on a 96-well tissue culture plate and allowed to adhere. After 24 h the medium was replaced with one that had either antibody or drug and incubated for a further 48 h. Cells were spun (to collect any cells that may have detached), and fixed in 70% ice-cold methanol (added drop wise) for at least 30 minutes at 4° C. The cells were washed twice with PBS, and to ensure that only DNA was stained, the fixed cells were treated with ribonuclease I (100 μg/ml, source) for 30 minutes at 37° C. Propidium iodide (50 μg/ml) was added and samples were analyzed using a Guava EasyCyte flow cytometer.

[3] = HPTLC / Western blot reactivity with gangliosides extracted from SK-MEL-28 cells grown with N-trichloroacetyl mannosamine; format: binding, human; conditions: mAbs 5 μg/ml; lanes 2 and 5
Experimental: SK-Mel-28 cells were grown on square 245 mm×245 mm bioassay dish (Corning) until near confluent. Growth medium (RPMI supplemented with 5 mM glutamine, 1 mM sodium pyruvate, 0.1 mM non-essential amino acids, 10% fetal bovine serum, and antibiotics) was replaced with growth medium containing trichloroacetyl mannosamine (5 mM) for 24 hours, after which cells were washed three times with PBS and lysed by hypotonic shock in distilled water (1 hour at 4° C.). This was followed by 3 cycles of freeze/thawing using ethanol on dry ice/37° C. water bath. The crude membrane fraction was pelleted by centrifugation at 4500 g for 20 minutes at 4° C. The pellet was lyophilized and the lipids extracted by stepwise washing with methanol/chloroform (1:2, 1:1, 2:1 by volume) for 30 minutes (Geilen et al 1992, Arch. Biochem. Biophys. 296, 108-114). The organic phase was dried under a steady stream of oxygen-free nitrogen gas and resuspended in 200 μl of chloroform/methanol/0.02% CaCl2 (50:40:10).
Lipids in the extract and in chemically de-N-acylated GD3 were analyzed by separation on high performance thin layer chromatography (HPTLC) and Western blot. […]

B1: SEAM 3: murine anti-N-Pr NmB polysaccharide monoclonal antibody (IgG2b), ATCC Deposit No. HB-12170 (antibody, V domains shown)
VH: EVKLQESGGGLVQPGDSLSLSCAASGFTFTPYYMGWVRQPPGKALEWLGYIRNKANGYTTEYSASVKGRFTISRDNSQSILYLQMNALRAEDSATYYCARYARGTVDSWGQGTTLTVS
VL: DIVMTQSPLTLSVTIGQPASISCKSSQSLLHSNGKTYLNWLLQRPGQSPKLLIYLVSKLESGVPDRFSGSGSGTDFTLKISRVEAEDLGLYYCLQIIHFPHTFGAGTKLELKRA
modifications: mouse
- reactivity with de-N-acyl GD3 / de-N-acyl gangliosides produced by alkali treatment [1]: does not react
- effect on cell cycle phase distribution [2]: reduced the proportion of cells in Go, S-phase and G2/M Phase, while increasing the number in pre-Go
- reactivity with SK-MEL-28 lipid extract treated with NaBH4 (protecting group removed) [3]: reacts with a different slower moving de-N-acetyl ganglioside derivative
